Reference: patent US20120201835A1 (MERCK, published 2012)
Where a chain is given by its changes, count along the chain named.

How the values were obtained:
[1] = target: Rhesus monkey Dkk-1 (Rhesus monkey); test: cell-based or functional assay
Mouse Dkk-1 [2] = target: T1, Mouse Dkk-1 (mouse, UniProt O54908 32-272); test: TRF cell assay, inhibition of Eu-labeled mouse Dkk-1 binding to cells
T1 construct: Recombinant; also called MsDkk-1; murine Dkk-1
T1 sequence (looked up): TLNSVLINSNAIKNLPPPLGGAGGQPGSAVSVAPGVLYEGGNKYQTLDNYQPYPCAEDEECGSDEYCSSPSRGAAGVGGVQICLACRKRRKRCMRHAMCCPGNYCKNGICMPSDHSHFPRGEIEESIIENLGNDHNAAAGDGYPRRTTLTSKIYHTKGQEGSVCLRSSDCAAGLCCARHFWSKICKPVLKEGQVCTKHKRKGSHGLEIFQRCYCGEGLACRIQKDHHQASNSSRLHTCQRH
Method: For the assay, the anti-Dkk-1 antibodies were added to HEK cells overexpressing LRP5 (HEK293hLrp5 cells) at final concentrations of 0.2, 0.6, 2.0, 6.0, and 20 nM. Anti-IL3 Receptor monoclonal antibody (8B4) was used as a negative control. Eu-labeled Dkk-1 (100 pM) was incubated with the cells in absence or presence of the antibodies for 20 minutes. Dkk-1 bound in solution by the antibodies and thus blocked from binding to the cell surface of the HEK293hLrp5 cells was removed by 4× wash steps and Eu-labeled Dkk-1 bound to cell surface was measured by TRF signal. Eu-labeled Dkk-1 protein binding to HEK293 cells overexpressing human LRP5 or LRP6 was monitored by measuring the time-resolved fluorescence of bound ligand.

Mouse Dkk-1 [3] = target: T1, Mouse Dkk-1; test: phage ELISA (+), scFv-phage on mouse Dkk-1
[4] = target: Rhesus monkey Dkk-1 (Rhesus monkey); test: TRF cell assay: inhibition of Eu-Dkk-1 binding to HEK293 cells overexpressing LRP5 or LRP6, scFv
[5] = target: Rhesus monkey Dkk-1 (Rhesus monkey); test: SPR, Biacore 3000, mean of several independent runs
Human Dkk-1 [6] = target: T2, Human Dkk-1 (human, UniProt O94907 32-266); test: as above
T2 sequence: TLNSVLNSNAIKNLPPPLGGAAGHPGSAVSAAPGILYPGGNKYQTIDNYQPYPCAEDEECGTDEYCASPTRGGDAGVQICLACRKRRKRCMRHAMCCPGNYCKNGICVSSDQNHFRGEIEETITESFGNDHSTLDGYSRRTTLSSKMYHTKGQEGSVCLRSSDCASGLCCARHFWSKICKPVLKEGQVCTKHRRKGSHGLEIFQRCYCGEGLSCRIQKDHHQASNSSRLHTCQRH
Method: (§1) The affinity of the RH2-18 antibody for human Dkk-1 and Rhesus Dkk-1 was determined by measuring RH2-18 binding kinetics by surface plasmon resonance in a Biacore 3000 instrument according to manufacturer's instructions (Biacore, Inc., Piscataway, N.J.). Several independent affinity studies were performed using different RH2-18 antibody lots against human Dkk-1 and rhesus Dkk-1.

[7] = target: Rhesus monkey Dkk-1 (Rhesus monkey); test: dot blot of native recombinant proteins, 0.1 ng to 100 ng
[8] = target: Rhesus monkey Dkk-1 (Rhesus monkey); test: TRF cell assay, inhibition of Eu-Dkk-1 binding to HEK293hLrp5 cells
[9] = target: Rhesus monkey Dkk-1 (Rhesus monkey); test: SPR, Biacore 3000, several independent runs with different antibody lots
Human Dkk-1 [10] = target: T2, Human Dkk-1; test: as above
Method: as §1

[11] = target: Rhesus monkey Dkk-1 (Rhesus monkey); test: TRF cell assay, inhibition of Eu-Dkk-1 binding to HEK293hLrp5 cells, extended dose range
[12] = target: T3, Rhesus monkey Dkk-2 (chimeric protein: N-terminal region of rhesus Dkk-1 fused to the C-terminal region of … (Rhesus monkey)); test: dot blot of native recombinant protein (0 to 100 ng per spot) probed with RH2-18
T3 chain: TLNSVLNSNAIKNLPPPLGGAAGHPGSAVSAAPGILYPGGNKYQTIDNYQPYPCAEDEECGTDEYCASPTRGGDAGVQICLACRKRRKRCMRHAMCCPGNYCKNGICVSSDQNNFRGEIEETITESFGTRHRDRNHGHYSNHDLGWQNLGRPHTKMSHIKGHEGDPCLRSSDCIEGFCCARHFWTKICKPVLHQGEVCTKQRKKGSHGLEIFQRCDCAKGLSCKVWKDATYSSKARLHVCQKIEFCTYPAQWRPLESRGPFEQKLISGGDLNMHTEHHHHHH
Method: Native recombinant rhesus monkey Dkk-1, Dkk-2, and cynomolgus monkey Dkk-4 proteins (0.1 ng to 100 ng) were used. A non-related recombinant protein was loaded as a control for non-specific assay signal (HIS protein) and probed with the RH2-18 antibodies.
The Dkk-1 amino acid sequence is closely related to that of Dkk-2 and Dkk-4 with 50% and 45% identity at the amino acid-level, respectively. Cross-reactivity of RH2-18 against rhesus monkey Dkk-2 (using a chimeric protein consisting of the N-terminal region of the rhesus Dkk-1 fused to the C-terminal region of the rhesus Dkk-2 with myc and His-6 tags at the C-terminal end of the Dkk-2 C-terminal region; see SEQ ID NO:71) and cynomolgus monkey Dkk-4 (SEQ ID NO:70) was tested by dot-blot analysis using recombinant proteins. Native recombinant rhesus monkey Dkk-1, Dkk-2, and cynomolgus monkey Dkk-4 proteins (0.1 ng to 100 ng) were used. A non-related recombinant protein was loaded as a control for non-specific assay signal (HIS protein). The dot blots were probed with RH2-18. […] Selectivity of the antibody towards Dkk-1 was minimally 100-fold.

[13] = target: Rhesus monkey Dkk-1 (Rhesus monkey); test: TRF cell-based blocking assay: Eu-labeled rhesus Dkk-1 binding to human LRP5 on HEK293hLrp5 cells, RH2-18 titrated over an extended range; no unit is printed beside the number or on the log axis, M follows from 4.75 nM in paragraph 132

B1: RH1-10 antibody (antibody, human IgG2, lambda, V domains shown)
VH: QVQLLQSAAEVKKPGESLKISCKGSGYDFPGYYLHWVRQAPGQGLEWMGWINANSGATNYAQNFQGRVTMTRDTSISAAYMELSSLRSDDTAVYYCTREDHWGRGTTVTVSS
VL: QSVLTQPPSASGAPGQRVTISCTGSSSNIGAGYDVHWYQQLPGAAPKLLIYGNSNRPSGVPDRFSGSKSGTSASLAITGLQAEDEADYYCQSYDSSLSGYVFGTGTKVTVLG
notes: IgG converted from the scFv, IgG2M4 heavy chain constant region
Which pTOPflash/Lef-1 luciferase reporter in HEK293hLrp5 cells, Wnt3A plus 50 nM rhesus Dkk-1 [1] does the source give for B1 here?
Its pTOPflash/Lef-1 luciferase reporter in HEK293hLrp5 cells, Wnt3A plus 50 nM rhesus Dkk-1 is > 30 nM.

Does B1 bind (Mouse Dkk-1 [2])?
Result: binds

B2: RH1-10 scFv (phage clone) (scFv, V domains shown)
VH: B1 VH
VL: B1 VL
notes: Single chain Fv from the CAT phage display library (BMV)
Does B2 bind (Mouse Dkk-1 [3])?
Result: binds

And the % inhibition of Dkk-1 [4]?
Its % inhibition of Dkk-1 is 89%.

B3: RH2-18 antibody (antibody, human IgG2, lambda, V domains shown)
VH: EVQLVQSGAEVKKPGASVKVSCKASGYTFTDYYIHWVRQAPGQGLEWMGWIHSNSGATTYAQKFQARVTMSRDTSSSTAYMELSRLESDDTAMYFCSREDYWGQGTLVTVSS
VL: QSVLTQPPSVSGAPGQRVTISCTGSSSNIGAGYDVHWYQQLPGTAPKLLIYGYSNRPSGVPDRFSGSKSGASASLAITGLRPDDEADYYCQSYDNSLSSYVFGGGTQLTVLS
notes: also called anti-Dkk-1 antibody RH2-18
Which results are given for B3?
endogenous ALP activity of C3H10T1/2 cells (osteoblastic differentiation), Wnt3A plus recombinant Dkk-1, 3 days [1]: 100 nM; pTOPflash/Lef-1 luciferase reporter in HEK293hLrp5 cells, Wnt3A plus 50 nM rhesus Dkk-1 [1]: > 30 nM; Kd [5]: 0.858 nM; Kd (Human Dkk-1 [6]): 0.251 nM; detection limit for binding [7]: 1 ng; selectivity towards Dkk-1 (fold, against Dkk-2 and Dkk-4) [7]: > 100 fold; inhibitory activity (concentration) [8]: 4.75 nM; Kd [9]: 0.771 to 0.934 nM; binding result (Mouse Dkk-1 [2]): binds; Kd (Human Dkk-1 [10]): 0.202 to 0.269 nM; effective dose [11]: 5 nM; binding result [12]: no binding (tested: 100 ng); EC50 [13]: 4.75 nM

B4: RH2-59 antibody (antibody, human IgG2, lambda, V domains shown)
VH: B3 VH with Q104R, L107M
VL: QAVLTQPSSVSGAPGQRVTISCTGSSSNIGAGYDVHWYQQLPGTAPKLLIYANTNRPSGIPDRFSGSKSGTSASLAITGLQTEDEADYYCQSYDTSPSASYVFGTGTKLTVLG
notes: as for B1
Does B4 bind (Mouse Dkk-1 [2])?
Result: binds

B5: RH2-80 antibody (antibody, human IgG2, lambda, V domains shown)
VH: B3 VH with Q104K, L107M
VL: QAVLTQPSSVSGAPGQRVSISCTGSSSNIGAAYDVHWYQQLPGTAPRLLIYVNNNRPSGVPDRFSGSKSGTSASLVIAGLQAEDEADYYCQSYDNSLNAYVFGTGTKLTVLG
notes: as for B1
For B5, which pTOPflash/Lef-1 luciferase reporter in HEK293hLrp5 cells, Wnt3A plus 50 nM rhesus Dkk-1 [1] is on record?
The pTOPflash/Lef-1 luciferase reporter in HEK293hLrp5 cells, Wnt3A plus 50 nM rhesus Dkk-1 was > 30 nM.

Does B5 bind (Mouse Dkk-1 [2])?
Result: binds

B6: RH2-59 scFv (phage clone) (scFv, V domains shown)
VH: B3 VH with Q104R, L107M
VL: B4 VL
notes: Single chain Fv from the CAT phage display library (CS)
Does B6 bind (Mouse Dkk-1 [3])?
Result: binds

And the % inhibition of Dkk-1 [4]?
Its % inhibition of Dkk-1 is 61%.

B7: RH2-80 scFv (phage clone) (scFv, V domains shown)
VH: B3 VH with Q104K, L107M
VL: B5 VL
notes: as for B6
Does B7 bind (Mouse Dkk-1 [3])?
Result: binds

And the % inhibition of Dkk-1 [4]?
Its % inhibition of Dkk-1 is 62%.

B8: RH2-18 scFv (phage clone) (scFv, V domains shown)
VH: EVQLVQSGAEVKKPGASVKVSCKASGYTFTDYYIHWVRQAPGQGLEWMGWIHSNSGATTYAQKFQARVTMSRDTSSSTAYMELSRLESDDTAMYFCSREDYWGQGTLVTV
VL: B3 VL
notes: as for B6
What does the source list for B8?
binding result (Mouse Dkk-1 [3]): binds; % inhibition of Dkk-1 [4]: 74%
